{"source": "patent US20220195407", "about": "“OPTIMIZATION OF ENGINEERED MEGANUCLEASES FOR RECOGNITION SEQUENCES” (Precision BioSciences, Inc., published 2022)", "assay_in_all_cases": "cell_activity; CHO iGFFP reporter", "key": {"[1]": {"target": "T1, LOX 3-4 M.36 (artificial (I-CreI derived))", "T1 chain": "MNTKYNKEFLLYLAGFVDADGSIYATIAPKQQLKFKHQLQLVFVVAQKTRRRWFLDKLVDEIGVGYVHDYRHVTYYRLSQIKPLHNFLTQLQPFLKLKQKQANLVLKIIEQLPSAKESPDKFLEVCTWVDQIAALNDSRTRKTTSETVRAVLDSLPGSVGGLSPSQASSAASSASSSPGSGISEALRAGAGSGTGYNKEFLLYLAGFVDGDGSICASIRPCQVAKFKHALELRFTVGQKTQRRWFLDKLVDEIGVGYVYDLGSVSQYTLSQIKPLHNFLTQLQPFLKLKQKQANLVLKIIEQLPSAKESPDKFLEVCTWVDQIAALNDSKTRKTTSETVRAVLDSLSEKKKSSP", "source_text": "(§1) A CHO cell reporter system (see WO/2012/167192, FIG. 3) was used to determine whether the engineered meganucleases generated in these studies could recognize and cleave the modified LOX 3-4 recognition sequences in Table 87. To perform the assay, a pair of CHO cell reporter lines were produced, which carried a non-functional Green Fluorescent Protein (GFP) gene expression cassette integrated into the genome of the cell. The GFP gene in each cell line was interrupted by a pair of recognition sequences such that intracellular cleavage of either recognition sequence by a meganuclease would stimulate a homologous recombination event resulting in a functional GFP gene. In both cell lines, one of the recognition sequences was derived from the LOX 3-4 recognition sequence (i.e., those sequences disclosed in Table 87), and the second recognition sequence was specifically recognized by a control meganuclease called “CHO 23/24.” CHO reporter cells comprising a recognition sequence derived from the LOX 3-4 recognition sequence and the CHO 23/24 recognition sequence are referred to herein as “test cells.”\n(§2) Novel engineered meganucleases derived from the LOX 3-4x.109 meganuclease were prepared by making amino acid substitutions at one or more positions in the first subunit. These engineered meganucleases were then evaluated for cleavage of the LOX 3-4 recognition sequence modified to have a GTGA center sequence (SEQ ID NO: 434) in the CHO reporter assay according to Example 1. Novel meganucleases which were modified to comprise the residues recited in the tables below were capable of cleaving the LOX 3-4 recognition sequence having a GTGA four base pair center sequence."}, "[2]": {"target": "T2, LOX 3-4 M.39 (artificial (I-CreI derived))", "T2 chain": "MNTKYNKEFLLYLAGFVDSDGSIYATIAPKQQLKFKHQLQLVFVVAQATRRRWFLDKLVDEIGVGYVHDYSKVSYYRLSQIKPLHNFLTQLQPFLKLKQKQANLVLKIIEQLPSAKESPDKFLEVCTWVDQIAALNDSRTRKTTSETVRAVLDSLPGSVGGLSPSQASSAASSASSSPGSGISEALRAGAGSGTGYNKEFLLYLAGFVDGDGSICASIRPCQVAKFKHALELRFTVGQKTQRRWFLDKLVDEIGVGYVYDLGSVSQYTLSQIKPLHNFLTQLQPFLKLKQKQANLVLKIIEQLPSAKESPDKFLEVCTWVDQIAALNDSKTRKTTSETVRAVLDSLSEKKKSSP", "source_text": "as §1, §2"}, "[3]": {"target": "T3, LOX 3-4 M.47 (artificial (I-CreI derived))", "T3 chain": "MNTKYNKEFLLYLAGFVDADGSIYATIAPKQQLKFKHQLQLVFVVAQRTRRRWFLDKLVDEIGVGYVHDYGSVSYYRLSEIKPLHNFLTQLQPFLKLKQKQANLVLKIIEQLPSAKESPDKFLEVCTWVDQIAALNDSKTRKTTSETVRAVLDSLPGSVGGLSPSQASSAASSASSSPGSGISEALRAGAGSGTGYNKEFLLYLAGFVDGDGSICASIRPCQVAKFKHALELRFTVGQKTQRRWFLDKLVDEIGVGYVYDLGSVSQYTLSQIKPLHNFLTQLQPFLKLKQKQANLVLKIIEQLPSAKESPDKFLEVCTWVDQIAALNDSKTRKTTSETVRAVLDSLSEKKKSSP", "source_text": "as §1, §2"}, "[4]": {"target": "T4, LOX 3-4 m.108 (artificial (I-CreI derived))", "T4 chain": "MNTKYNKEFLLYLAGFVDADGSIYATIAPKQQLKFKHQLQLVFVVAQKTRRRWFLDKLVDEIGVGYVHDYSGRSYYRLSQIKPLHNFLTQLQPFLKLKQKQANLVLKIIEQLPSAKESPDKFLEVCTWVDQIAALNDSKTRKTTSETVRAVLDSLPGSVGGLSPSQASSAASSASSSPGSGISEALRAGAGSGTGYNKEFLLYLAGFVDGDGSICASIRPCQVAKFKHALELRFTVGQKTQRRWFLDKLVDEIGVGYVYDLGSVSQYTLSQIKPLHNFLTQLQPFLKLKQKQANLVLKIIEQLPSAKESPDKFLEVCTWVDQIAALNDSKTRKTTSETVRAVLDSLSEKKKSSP", "source_text": "as §1\nas §2, with “GTAG” for “GTGA”, “390)” for “434)”"}, "[5]": {"target": "T5, LOX 3-4 m.97 (artificial (I-CreI derived))", "T5 chain": "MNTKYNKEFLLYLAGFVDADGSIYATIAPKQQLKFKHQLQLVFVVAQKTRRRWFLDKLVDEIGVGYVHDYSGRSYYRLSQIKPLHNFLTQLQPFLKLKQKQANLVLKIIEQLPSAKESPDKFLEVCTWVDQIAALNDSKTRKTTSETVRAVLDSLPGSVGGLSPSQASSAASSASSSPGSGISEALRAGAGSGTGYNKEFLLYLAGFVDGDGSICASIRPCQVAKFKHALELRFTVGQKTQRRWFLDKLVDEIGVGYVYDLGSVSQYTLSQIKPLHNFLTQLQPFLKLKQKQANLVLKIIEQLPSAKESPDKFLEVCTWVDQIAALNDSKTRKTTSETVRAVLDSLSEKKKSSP", "source_text": "as §1\nas §2, with “GTAG” for “GTGA”, “390)” for “434)”"}, "[6]": {"target": "T6, LOX 3-4 m.111 (artificial (I-CreI derived))", "T6 chain": "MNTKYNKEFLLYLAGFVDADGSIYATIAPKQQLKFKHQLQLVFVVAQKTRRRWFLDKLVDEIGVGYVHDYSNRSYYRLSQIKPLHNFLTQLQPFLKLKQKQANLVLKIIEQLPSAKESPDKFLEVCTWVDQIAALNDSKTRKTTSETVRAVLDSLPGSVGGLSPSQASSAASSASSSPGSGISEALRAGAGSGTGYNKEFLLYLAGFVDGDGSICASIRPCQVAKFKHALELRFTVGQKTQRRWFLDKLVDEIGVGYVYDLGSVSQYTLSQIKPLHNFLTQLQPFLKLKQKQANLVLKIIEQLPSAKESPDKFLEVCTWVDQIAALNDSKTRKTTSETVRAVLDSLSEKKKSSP", "source_text": "as §1\nas §2, with “GTAG” for “GTGA”, “390)” for “434)”"}, "[7]": {"target": "T7, LOX 3-4 m.149 (artificial (I-CreI derived))", "T7 chain": "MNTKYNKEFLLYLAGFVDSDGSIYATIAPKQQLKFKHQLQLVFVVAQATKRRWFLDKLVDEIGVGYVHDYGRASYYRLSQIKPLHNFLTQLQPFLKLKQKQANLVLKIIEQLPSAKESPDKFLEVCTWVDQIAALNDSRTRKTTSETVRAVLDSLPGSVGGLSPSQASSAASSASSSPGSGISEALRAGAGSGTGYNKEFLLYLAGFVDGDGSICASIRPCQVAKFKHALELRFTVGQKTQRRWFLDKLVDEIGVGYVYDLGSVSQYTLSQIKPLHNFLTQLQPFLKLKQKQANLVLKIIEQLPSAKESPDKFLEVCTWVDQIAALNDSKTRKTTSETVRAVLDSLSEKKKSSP", "source_text": "as §1\nas §2, with “GTAT” for “GTGA”, “400)” for “434)”"}, "[8]": {"target": "T8, LOX 3-4 m.152 (artificial (I-CreI derived))", "T8 chain": "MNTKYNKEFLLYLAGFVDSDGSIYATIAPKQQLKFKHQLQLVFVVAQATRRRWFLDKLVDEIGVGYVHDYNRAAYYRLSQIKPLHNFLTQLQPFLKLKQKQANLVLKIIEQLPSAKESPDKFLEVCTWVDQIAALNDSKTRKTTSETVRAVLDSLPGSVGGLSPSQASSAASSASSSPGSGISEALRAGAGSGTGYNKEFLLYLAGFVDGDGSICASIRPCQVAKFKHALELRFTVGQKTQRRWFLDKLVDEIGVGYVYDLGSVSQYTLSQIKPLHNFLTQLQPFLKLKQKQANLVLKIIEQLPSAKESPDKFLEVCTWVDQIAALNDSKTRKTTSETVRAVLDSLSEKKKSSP", "source_text": "as §1\nas §2, with “GTAT” for “GTGA”, “400)” for “434)”"}, "[9]": {"target": "T9, LOX 3-4 m.140 (artificial (I-CreI derived))", "T9 chain": "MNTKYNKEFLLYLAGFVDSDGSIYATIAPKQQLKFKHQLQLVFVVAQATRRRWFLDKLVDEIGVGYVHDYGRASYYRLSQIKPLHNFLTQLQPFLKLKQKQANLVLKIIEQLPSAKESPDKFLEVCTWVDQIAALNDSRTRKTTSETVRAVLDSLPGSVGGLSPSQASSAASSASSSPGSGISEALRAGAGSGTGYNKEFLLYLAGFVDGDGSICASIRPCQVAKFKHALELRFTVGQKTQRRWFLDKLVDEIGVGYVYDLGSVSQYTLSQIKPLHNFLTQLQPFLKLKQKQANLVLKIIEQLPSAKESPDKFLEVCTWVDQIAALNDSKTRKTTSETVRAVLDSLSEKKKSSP", "source_text": "as §1\nas §2, with “GTAT” for “GTGA”, “400)” for “434)”"}}, "data": [{"binder": "LOX 3-4 GTGA (dsDNA) DNA 1: GTATAGCATGTGATATACGAAG DNA 2: CTTCGTATATCACATGCTATAC", "values": [{"measurement": "activity", "setting": "[1]", "value": 2.75, "unit": "% GFP"}, {"measurement": "activity", "setting": "[2]", "value": 8.66, "unit": "% GFP"}, {"measurement": "activity", "setting": "[3]", "value": 10.1, "unit": "% GFP"}]}, {"binder": "LOX 3-4 GTAG (dsDNA) DNA 1: GTATAGCATGTAGTATACGAAG DNA 2: CTTCGTATACTACATGCTATAC", "values": [{"measurement": "activity", "setting": "[4]", "value": 19.7, "unit": "% GFP"}, {"measurement": "activity", "setting": "[5]", "value": 17.2, "unit": "% GFP"}, {"measurement": "activity", "setting": "[6]", "value": 17, "unit": "% GFP"}]}, {"binder": "LOX 3-4 GTAT (dsDNA) DNA 1: GTATAGCATGTATTATACGAAG DNA 2: CTTCGTATAATACATGCTATAC", "values": [{"measurement": "activity", "setting": "[7]", "value": 12.9, "unit": "% GFP"}, {"measurement": "activity", "setting": "[8]", "value": 4.43, "unit": "% GFP"}, {"measurement": "activity", "setting": "[9]", "value": 13.1, "unit": "% GFP"}]}]}
